B1: melanotransferrin p97(668-683) (peptide)
peptide: GQDLLFKDATVRAVPV
notes: Eluted from HLA-DR of dendritic cells; also called 13

The assay concerns the target HLA-DR4 (DRB1*0401) (human). Briefly: in vitro peptide competition assay, purified HLA-DR, biotinylated HA(307-319) reporter.
DKARVEVERDNLAEDIM (Eluted from HLA-DR of dendritic cells) [vimentin(167-183)]: the binding result was “binds”.

For TLQSFRQDVDNASLAR (Eluted from HLA-DR of dendritic cells) [vimentin(202-217)], the binding result is “binds”. The same measure for B1: “binds”.

The values above are taken from patent publication US20050202009A1 (published 2005).
